Results published in article PMC7895943 (Communications Biology, 2021).

Target: purified recombinant human α-synuclein (N-terminal histidine tagged) (human, UniProt P37840 1-140)
Assay: SPR; Biacore 3000; about 1500 RU of α-synuclein amine-coupled to a CM5 chip; peptides in two-fold dilutions (0.20-12.50 µM, in duplicate) injected 3 min at 30 µl/min, then 3 min dissociation; HBS pH 7.4 (10 mM HEPES, 150 mM NaCl, 3 mM EDTA, 0.005% P20); double-referenced; report points 20 s into dissociation (200 s)
Conditions: both partners purified

B1: Tat-βsyn-degron peptide (peptide)
peptide: YGRKKRRQRRRRTKSGVYLVGRRRG
notes: Tat plasma membrane transduction domain (HIV-1 Tat stretch); degron, proteasomal targeting signal; also called α-synuclein knockdown peptide; α-synuclein targeting peptide; source: synthetic peptide (GL Biochem, Shanghai)
  binding result: binds
